How the values were obtained:
Zta [1] = target: T1, Zta (Epstein-Barr virus, UniProt P03206 1-245); assay: competition; vs labelled ZIIIB; rank 1 of single-methyl sites; EMSA conditions not stated (cited to earlier papers); IVT proteins in rabbit reticulocyte lysate or wheat germ; competition with 6x-100x unlabelled DNA; details: protein: ivt; tags: [35S]Met-labelled in EMSA; chain copies: 2
Zta [2] = target: T1, Zta; assay: competition; vs labelled ZIIIB; rank 2 of single-methyl sites; EMSA conditions not stated (cited to earlier papers); IVT proteins in rabbit reticulocyte lysate or wheat germ; competition with 6x-100x unlabelled DNA; details: protein: ivt; tags: [35S]Met-labelled in EMSA; chain copies: 2

T1 sequence (P03206 whole entry): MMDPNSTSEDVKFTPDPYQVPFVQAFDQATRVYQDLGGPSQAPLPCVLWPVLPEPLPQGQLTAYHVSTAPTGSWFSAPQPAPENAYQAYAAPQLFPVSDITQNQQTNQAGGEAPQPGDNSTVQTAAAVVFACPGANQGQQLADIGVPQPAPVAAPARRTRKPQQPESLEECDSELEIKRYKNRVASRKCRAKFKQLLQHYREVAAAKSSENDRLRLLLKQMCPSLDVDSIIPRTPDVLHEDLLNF

B1: ZRE3 mC1' (dsDNA)
DNA 1: GATCTATAGCATCGCGAATTTTGA
DNA 2: TCAAAATTCGCGATGCTATAGATC
modifications: single 5mC at the complement of G14 (position assigned from text)
Q: Does B1 bind (Zta [1])?
A: binds

B2: ZRE3 mC-2 (dsDNA)
DNA 1: GATCTATAGCATCGCGAATTTTGA
DNA 2: TCAAAATTCGCGATGCTATAGATC
modifications: single 5mC at C13 of strand 1 (position assigned from text)
Q: Does B2 bind (Zta [2])?
A: binds
